Laboratory results published in PMC11094088, “Molecular mechanism of Oxr1p mediated disassembly of yeast V-ATPase” (EMBO Reports, 2024).

Tests used:
[1] = biological target: recombinant N-terminally 7×His tagged biotinylated Oxr1p (bio-Oxr1p) (yeast) (UniProt Q08952); test: BLI; bio-Oxr1p (10 µg/ml) immobilised on streptavidin biosensors, V1ΔH^(ΔOxr1) with or without recombinant subunit C in solution; 20 mM Tris-HCl pH 7.0, 0.5 mM EDTA, β-mercaptoethanol, 5.0 mg/ml BSA; 23 °C; global fitting
[2] = biological target: V1ΔH^(ΔOxr1) in the presence of recombinant subunit C (yeast (endogenous) | yeast) (UniProt P16140); test: BLI; α-mouse IgG Fc capture biosensors loaded with α-MBP antibody, then MBP-HWT or MBP-H_(chim) (5 µg/ml); 40 nM V1ΔH in solution with buffer, Oxr1p (equimolar), subunit C (twofold molar excess) or Oxr1p + subunit C; TBSE plus 0.5 mg/ml BSA; 23 °C
[3] = biological target: wild-type yeast V-ATPase reconstituted into lipid nanodiscs (V1VoND) (yeast (endogenous) | yeast) (UniProt P16140)
[4] = biological target: wild-type yeast V-ATPase reconstituted into lipid nanodiscs (V1VoND) (yeast (endogenous) | yeast) (UniProt P16140); remark: listed apart in the source
[5] = biological target: T1, V1 subunit B (the B subunit of the open catalytic site), in the purified V-ATPase (yeast (endogenous), UniProt P16140 1-517); test: cryo-EM structure; V-ATPase in lipid nanodiscs (~1-2 mg/ml) vitrified with a twofold molar excess of Oxr1p, no nucleotide; 3-D classes at ~8.2 Å; Oxr1p density in the rotary state 1 class (~31% of particles); details: both partners purified
T1 construct: V1 subunit B, yeast; source: endogenous, part of the purified yeast V-ATPase in lipid nanodiscs
T1 sequence (P16140 whole entry): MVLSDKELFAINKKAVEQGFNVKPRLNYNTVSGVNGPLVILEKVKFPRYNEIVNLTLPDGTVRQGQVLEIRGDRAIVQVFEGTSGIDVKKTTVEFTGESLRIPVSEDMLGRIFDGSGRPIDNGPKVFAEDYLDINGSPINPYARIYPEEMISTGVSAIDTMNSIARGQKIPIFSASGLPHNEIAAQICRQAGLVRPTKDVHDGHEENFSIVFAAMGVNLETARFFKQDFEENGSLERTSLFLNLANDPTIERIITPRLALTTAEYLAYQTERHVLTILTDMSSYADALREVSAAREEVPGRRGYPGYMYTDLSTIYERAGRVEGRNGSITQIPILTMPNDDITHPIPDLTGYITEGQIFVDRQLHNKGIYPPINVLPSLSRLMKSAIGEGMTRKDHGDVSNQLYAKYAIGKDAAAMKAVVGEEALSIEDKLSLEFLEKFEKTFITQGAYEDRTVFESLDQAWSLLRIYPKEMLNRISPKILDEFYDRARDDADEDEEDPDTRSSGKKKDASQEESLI

Molecule: V1ΔH^(ΔOxr1) in the presence of recombinant subunit C (from UniProt P16140 1-517; P32610 1-256; P22203 1-233; P39111 1-118; P48836 1-114; P31412 1-392) (complex)
- Kd [1]: 7 nM

Molecule: V1ΔH, V1 subcomplex without subunit H (FLAG-tagged subunit G), from the oxr1Δvma13Δ background (from UniProt P16140 1-517; P32610 1-256; P22203 1-233; P39111 1-118; P48836 1-114)
- Kd [1]: 67 nM

B1: Oxidation Resistance protein 1 (Oxr1p), recombinant (natural protein, yeast, UniProt Q08952 1-273, looked up)
chain: MFGVKDAIFKIKRSIAGTDSSDSTAYTTASESSPQLKDSHNPFRNKTTSERTIVEEGSLPPVRLNGYLPSTKNKLLTPEMCDEIRTLMPTRIQLYTEWNLLYSLEQHGSSLHSLYSNVAPDSKEFRRVGYVLVIKDRKNGIFGAYSNEAFHPNEHRQYTGNGECFLWKLDKVPDVNISEKEESEQEGKEGKEEGDKEERWRFSGYPYTGVNEFAIYCTSEFLSMGAGDGHYGLLCDDGLLHGVSNPCQTYGNEVLSKEGKKFSIVALEVWRVG
notes: Oxr1p, yeast TLDc domain protein; construct as described in Khan et al, 2022; also called recombinant Oxr1p; source: E. coli BL21DE3, purified (Ni-NTA, Superdex-75 SEC); not shown: 7xHis, N-terminal, kept
- percent reduction of V1ΔH binding to immobilised H (chim) (subunit C and Oxr1p, against Oxr1p only) [2]: 25%
- percent reduction of V1ΔH binding to immobilised wild-type H (subunit C and Oxr1p, against Oxr1p only) [2]: 60%
- ATPase activity of purified V-ATPase in nanodiscs left after incubation with a twofold molar excess of Oxr1p, 30 min to 16 h, relative to the starting activity [3]: 70%
- loss of ATPase activity of purified V-ATPase after 30 min with a twofold molar excess of Oxr1p alone [4]: 30%
- binding result [5]: binds
